Experimental data as given in PMC3156696 (Developmental cell, 2010).

Assays:
[1] = biological target: soluble αβ-tubulin heterodimer purified from bovine brain (bovine) (UniProt Q6B856)
[2] = biological target: soluble αβ-tubulin heterodimer purified from bovine brain (bovine) (UniProt Q6B856); assay: SEC
[3] = biological target: GMPCPP-stabilized microtubules (unlabelled, polymerized bovine brain tubulin) (bovine, UniProt Q6B856 1-445); assay: co-sedimentation
[4] = biological target: soluble αβ-tubulin heterodimer purified from bovine brain (bovine) (UniProt Q6B856); assay: AUC
AUC = biological target: the molecule itself; assay: AUC

| Binder | MT rescue frequency in TIRF dynamics assay, 6 μM tubulin, Cls1p 20 nM to 140 nM [1] [rescues/min] | stoichiometry N (Cls1p molecules per αβ-tubulin dimer) [2] | stoichiometry N [3] | stoichiometry N (tubulin dimer per complex) [4] | stoichiometry N (AUC) |
| --- | --- | --- | --- | --- | --- |
| full-length S. pombe Cls1p (residues 1-1462) (natural protein, UniProt O42874 1-1462, looked up) MADKDAQDFLKFLKSNASTDEKTRCLDTLRSFFNKNNIPNADLGLFVECFRLALTTVNPLLLRSSVACFETFLRRLRAQYPTWLKFRVPMLKNLVIDHIASRDLQKRVLNILIDLWHFNPSEIEKSLIHLSTTSKSAETRIQCFKWFVLAHNAHLSFDVKSLRPALYINLENANPSVREEAKEVLLLIYKNLSTSAKMQFITDVETTSGLRREILQSLVEELSLISSSSEVIIVQNSASSFQPAPFMTAVATLYPGVELENVKPLLANFSKQLEQDSASMLPAFEGRETEQNWSVRQDSVLRLRQYLRGNACIDYLPELLSVLKTLLPGILLALLSLRTTLSSSAIQLIKEMAIILKSNIDPFLELILPNLLKVCSVTKKLASQAANVTFAAILVNCGVLSRNLSFISLAAHDTNAQLRVFSSNWIFMLISLSPELKNLASLQTNLKAFEKLICRGLADSNSQVREVYRKSFWKLSEYFPSVQEELTNTLEPSVLKQLHLANPNRQAASFNFSGPKRAPIRPLSNLRSFSKSQKEETSSNSSNSSGTRRLGLPQRATPASRERVLPYTRSQAFHSTSLPPSLPSGHSPSIAIPSKRSVSATIKDESKTFELLKNIQRKYELILSGSSVDLPSAEFLSSNLTDALYSGSSICYSLIFSHSLLDLTFQYVDIASLLSQFLLCVYDPSNVGHSFALASFPYVKSHYDAHKYFPIVFDVLMNISNMAPHVKVFPFNTNQKRLIIHGCLLWLKEISDTKLNQLENKPFFVTDKLRYYSSKILAMTAKTKLTSKNWIPLSGLLFSLRAHDTFMFDGLLDRLNEESRTKLVSSWSKQDAFDYSKSSTHQEHLSKNLPTLNTSSSSNSSQTDLLVPHGKGETKETEMQSPIESKEGLLSKDTHIESPQGTSLEKENEEEGKNPVESNCSEESLDDHNIDQTLVNKKETLAQDSESLLQKNNALNEKGFENQFGLSSSAAKVLNKDTLDHVSGPISNSVSSSFKDFTRTPFKEINGERETGFELTSYVNALSKKDDINVQKTENVDESVGLNAMFMDNVNQDSLNSVDQSSGKDKLLLTSSTPNKPTTFFMPANEEILGSPAKDYDIHDQSYSVHELHSENMRENVGQSSLIYNNRDYMNTPMNDFSLSFSEIKGGILESPVESPMTGTISPIDADESVLHDIPAYESLNKSESNKYQEQAYSTPLHHTLNVLPKNKWILSRMHKMENGSPINVDKNLDDAVAALEAAVKELNDGSVNTKTLKFCIKVCKETPSMLYHSHGLLPAILHYIESNNSAMHISDCLILLHEFLVQGYQGVDMHTYHNIICILIEKAEKCKDEPVILAGIEDNITLIAEIADLQGLYEFTQQRLQSLNTETGEKSAPLLLMLLSAILMRLKDLEFLETKDLLRHVVLKYIDHTNPEIRKATFNVCLAVNTIVNNVDETFSILGGLNEGQRLLFMHYLKMKSDEKN | 2.15 | 2 | ~6 polymerized tubulin dimers per Cls1p monomer |  |  |
| Cls1p-GFP (full-length Cls1p with GFP fused to its C-terminus) (natural protein, S. pombe, UniProt O42874 1-1462, looked up) MADKDAQDFLKFLKSNASTDEKTRCLDTLRSFFNKNNIPNADLGLFVECFRLALTTVNPLLLRSSVACFETFLRRLRAQYPTWLKFRVPMLKNLVIDHIASRDLQKRVLNILIDLWHFNPSEIEKSLIHLSTTSKSAETRIQCFKWFVLAHNAHLSFDVKSLRPALYINLENANPSVREEAKEVLLLIYKNLSTSAKMQFITDVETTSGLRREILQSLVEELSLISSSSEVIIVQNSASSFQPAPFMTAVATLYPGVELENVKPLLANFSKQLEQDSASMLPAFEGRETEQNWSVRQDSVLRLRQYLRGNACIDYLPELLSVLKTLLPGILLALLSLRTTLSSSAIQLIKEMAIILKSNIDPFLELILPNLLKVCSVTKKLASQAANVTFAAILVNCGVLSRNLSFISLAAHDTNAQLRVFSSNWIFMLISLSPELKNLASLQTNLKAFEKLICRGLADSNSQVREVYRKSFWKLSEYFPSVQEELTNTLEPSVLKQLHLANPNRQAASFNFSGPKRAPIRPLSNLRSFSKSQKEETSSNSSNSSGTRRLGLPQRATPASRERVLPYTRSQAFHSTSLPPSLPSGHSPSIAIPSKRSVSATIKDESKTFELLKNIQRKYELILSGSSVDLPSAEFLSSNLTDALYSGSSICYSLIFSHSLLDLTFQYVDIASLLSQFLLCVYDPSNVGHSFALASFPYVKSHYDAHKYFPIVFDVLMNISNMAPHVKVFPFNTNQKRLIIHGCLLWLKEISDTKLNQLENKPFFVTDKLRYYSSKILAMTAKTKLTSKNWIPLSGLLFSLRAHDTFMFDGLLDRLNEESRTKLVSSWSKQDAFDYSKSSTHQEHLSKNLPTLNTSSSSNSSQTDLLVPHGKGETKETEMQSPIESKEGLLSKDTHIESPQGTSLEKENEEEGKNPVESNCSEESLDDHNIDQTLVNKKETLAQDSESLLQKNNALNEKGFENQFGLSSSAAKVLNKDTLDHVSGPISNSVSSSFKDFTRTPFKEINGERETGFELTSYVNALSKKDDINVQKTENVDESVGLNAMFMDNVNQDSLNSVDQSSGKDKLLLTSSTPNKPTTFFMPANEEILGSPAKDYDIHDQSYSVHELHSENMRENVGQSSLIYNNRDYMNTPMNDFSLSFSEIKGGILESPVESPMTGTISPIDADESVLHDIPAYESLNKSESNKYQEQAYSTPLHHTLNVLPKNKWILSRMHKMENGSPINVDKNLDDAVAALEAAVKELNDGSVNTKTLKFCIKVCKETPSMLYHSHGLLPAILHYIESNNSAMHISDCLILLHEFLVQGYQGVDMHTYHNIICILIEKAEKCKDEPVILAGIEDNITLIAEIADLQGLYEFTQQRLQSLNTETGEKSAPLLLMLLSAILMRLKDLEFLETKDLLRHVVLKYIDHTNPEIRKATFNVCLAVNTIVNNVDETFSILGGLNEGQRLLFMHYLKMKSDEKN |  |  |  | 1 | 2 |
| Cls1p^604 (residues 1-604) (domain or fragment, S. pombe, UniProt O42874 1-604, looked up) MADKDAQDFLKFLKSNASTDEKTRCLDTLRSFFNKNNIPNADLGLFVECFRLALTTVNPLLLRSSVACFETFLRRLRAQYPTWLKFRVPMLKNLVIDHIASRDLQKRVLNILIDLWHFNPSEIEKSLIHLSTTSKSAETRIQCFKWFVLAHNAHLSFDVKSLRPALYINLENANPSVREEAKEVLLLIYKNLSTSAKMQFITDVETTSGLRREILQSLVEELSLISSSSEVIIVQNSASSFQPAPFMTAVATLYPGVELENVKPLLANFSKQLEQDSASMLPAFEGRETEQNWSVRQDSVLRLRQYLRGNACIDYLPELLSVLKTLLPGILLALLSLRTTLSSSAIQLIKEMAIILKSNIDPFLELILPNLLKVCSVTKKLASQAANVTFAAILVNCGVLSRNLSFISLAAHDTNAQLRVFSSNWIFMLISLSPELKNLASLQTNLKAFEKLICRGLADSNSQVREVYRKSFWKLSEYFPSVQEELTNTLEPSVLKQLHLANPNRQAASFNFSGPKRAPIRPLSNLRSFSKSQKEETSSNSSNSSGTRRLGLPQRATPASRERVLPYTRSQAFHSTSLPPSLPSGHSPSIAIPSKRSVSATIKD |  |  | ~3 polymerized tubulin dimers per Cls1 molecule |  |  |
